In patent US20250215071A1, “Novel Mcl-1 inhibitor and combination of Mcl-1 and a BH3 mimetic, such as a Bcl-2 inhibitor” (NETRIS PHARMA, priority 2022, published 2025):

Tested on: human Mcl-1
Test: In vivo Mcl-1 degradation in EMT6 syngeneic breast cancer model (western blot)
Settings: EMT6 cells over-expressing human Mcl-1 in BALB/c mice; 20 mg/Kg i.v.; 8 hours after treatment; vs control mice (Iso-mAb)
Description: FIG. 7. Netrin-1 interference triggers Mcl-1 degradation in vitro and in vivo. (A,B): Netrin-1 silencing triggers Mcl-1 degradation. Breast cancer MCF7 cells were transfected with scramble (siCTRL) or netrin-1 (siNet) targeting siRNAs. 48 hours after transfection, cells were lysed by scraping and sonication in SDS-containing buffer. Protein levels of Mcl-1, netrin-1, and UNC5B, as well as B-actin and Ku80, used as housekeeping genes, were evaluated by western blot (A). Relative Mcl-1 protein levels, normalized to β-actin or Ku80, are shown in (B) (n=2, *** p<0.001, **** p<0.0001, ordinary two-way ANOVA with Sidak's multiple comparisons test). […] Protein levels of Mcl-1 were then evaluated by western blot (C). […] Mcl-1 protein was quantified in paraffin-embedded slices on paired C1D1 and C3D1 biopsies and compared with clinical benefit (stable disease, SD, or progression disease, PD, at 6 weeks). Mcl-1 intensity was assessed in all, PD or SD biopsies (E) (n=6, Wilcoxon test). […]
For immunoblotting analysis, cells were lysed by sonication in SDS buffer (10 mM Tris-HCl pH 7.4, 10% glycerol, 5% SDS, 1% TX-100, 100 mM DTT) in the presence of protease inhibitor cocktail (Roche Applied Science). […] Protein band quantification was performed with Image Lab 6.1 software (Bio-rad), considering the adjusted volume intensity normalized with housekeeping genes. […]

B1: NP137: humanized anti-netrin-1 monoclonal antibody, VH SEQ ID NO: 22, VL SEQ ID NO: 16, human IgG1 (antibody, V domains shown)
VH: QVQLQQSGPGLVKPSQTLSLTCAISGYTFTSYNMHWVRQATGQGLEWMGAIYPGNGDTSYNQKFKGRLTISKDTSKNQVVLTMTNMDPVDTATYYCARGGTGFAYWGQG
VL: DIQMTQSPSSLSASVGDRVTITCKASQSVSNDVAWYQQKPGQAPRLLIYYASNRYTGIPPRFSGSGYGTDFTLTINNIESEDAAYYFCQQDYSSPWTFGQG
modifications: human IgG1 constant region; humanized variant; MISC_FEATURE - CDR according to IGMT
In the case of B1, the “Mcl-1 protein levels in tumors” value is reported as “significantly reduced Mcl-1 protein levels”.
